Reference: patent US20260374878 (published 2026)

Molecular target: T1, CLL1 (expressed on K562-CLL1 cells) (human, UniProt Q5QGZ9)
T1 chain: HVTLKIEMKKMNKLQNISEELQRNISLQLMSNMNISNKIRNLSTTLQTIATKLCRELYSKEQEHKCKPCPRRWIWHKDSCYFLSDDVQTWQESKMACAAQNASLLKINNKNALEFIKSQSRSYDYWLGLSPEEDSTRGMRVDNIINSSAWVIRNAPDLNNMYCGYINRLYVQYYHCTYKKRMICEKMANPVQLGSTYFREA
Test: FACS, K562-CLL1 cells, room temperature, bivalent Fc fusion

Kd: 5 nM
B1: CLL1-VHH-16-hFc (antibody)
chain 1: DVQLQESGGGLVQPGGSLRLSCAASGFTFGSYDMTWVRQAPGKGPEWVSGINSGGSSTYYADSVKGRFTISRDNAKNTLYLQMNSLKPEDTAVYYCATIDRLSTVVAGTYQPSEEYDYWGQGTQVTVSS
chain 2: not shown
